Article PMC4794788, “Cell‐free synthesis of isotopically labelled peptide ligands for the functional characterization of G protein‐coupled receptors” (FEBS Open Bio, 2015)
Entries after “also recorded” stand apart in the source; their conditions may differ.

Target: T1, human complement 5a receptor (C5aR) (Homo sapiens, UniProt P21730)
T1 construct: 10x His (N); FLAG (N); StrepII (C); made in house; host or cells: Sf9 insect cells (recombinant baculovirus, pOET5 / flashBAC); membrane preparation
T1 sequence (P21730 1-350): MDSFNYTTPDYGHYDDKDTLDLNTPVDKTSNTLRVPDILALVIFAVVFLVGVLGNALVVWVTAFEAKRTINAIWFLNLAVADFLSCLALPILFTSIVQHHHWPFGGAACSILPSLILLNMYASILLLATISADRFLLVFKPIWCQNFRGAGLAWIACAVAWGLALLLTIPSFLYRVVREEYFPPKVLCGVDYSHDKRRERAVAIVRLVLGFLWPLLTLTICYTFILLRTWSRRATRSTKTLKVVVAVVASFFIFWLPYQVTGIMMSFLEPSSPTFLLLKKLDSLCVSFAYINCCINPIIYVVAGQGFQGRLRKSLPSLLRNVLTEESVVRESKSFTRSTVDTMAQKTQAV
Assay: Specific binding of [^3H]‐C5a^CF to C5aR (optimization of translation and assay conditions)
Protocol: For the cell‐free synthesis of radioligands one amino acid was replaced with a tritiated variant depending on its abundance in the respective ligand. Complement 5a was produced in the presence of 1 μM (FM)/2.1 μM (RM) L‐[2,3‐^3H]‐proline (specific activity 55 Ci·mmol^−1, Perkin Elmer, Boston, USA). […] The cell‐free reaction was initiated omitting the labelled amino acid and incubated at 30 °C, 100 rpm for 3 h. The reaction mix was removed from the D‐tube™ dialyzer and incubated with 0.2 mL Ni‐NTA magnetic agarose beads suspension (Qiagen) per mL reaction mix for 10 min to remove undesired side products translated with endogenously present amino acids from the S30 extract. The reaction mix was removed from the magnetic beads, supplemented with 0.25 mM L‐histidine to account for potential losses in the IMAC (immobilized metal ion affinity chromatography) step and the tritium‐labelled amino acid. The feeding mix was discarded and replaced with a fresh mix containing the labelled amino acid. Reactions were incubated at 30 °C in a water bath under constant shaking overnight.
For purification of tritium‐labelled complement 5a ([^3H]‐C5a^CF), reaction and feeding mixes were pooled and applied to a 1 mL HisTrap FF column (GE Healthcare) equilibrated in buffer C^C5a using a peristaltic pump. The column was washed with 4 CV buffer C1^C5a, 4 CV buffer C2^C5a and eluted in 4 CV buffer D^C5a. […] Buffer exchange to buffers C^C5a or C^ET−1 was performed by repeated concentration and dilution in a 3 kDa MWCO concentrator (Amicon) and protein concentration was calculated using the specific activity of incorporated [^3H]‐Pro or [^3H]‐Phe residues.
The complement 5a receptor was coproduced with Gαi2 in Sf9 insect cells. The cDNA encoding the human complement 5a receptor flanked by an N‐terminal 10x His and FLAG tag and a C‐terminal StrepII tag was cloned into the pOET5 transfer vector (Oxford Expression Technologies, Oxford, UK). pOET5 contains two expression cassettes, the receptor is expressed under the control of a polyhedron promoter; Gαi2 expression is regulated by a p10 promoter. […]

B1: [^3H]‐C5a^CF: cell‐free‐synthesized tritium‐labelled complement 5a with N‐terminal hexa‐histidine tag; contains three proline residues (protein, UniProt P01031 678-751, looked up)
C5a anaphylatoxin: TLQKKIEEIAAKYKHSVVKKCCYDGACVNNDETCEQRAARISLGPRCIKAFTECCVVASQLRANISHKDMQLGR
modifications: C5a anaphylatoxin tritium label
First translation trials, produced with DsbA and IMAC purified, no pretranslation step
  Specific binding to the C5aR: only low and nonsignificant binding to the C5aR; also recorded: specific binding is low and nonsignificant
Pretranslation step plus NaCl in assay and wash buffer
  Specific binding to the C5aR: further increases the detected specific binding
With pretranslation step to remove endogenous proline
  Specific binding to the C5aR: binding specifically to the C5aR and displaying low nonspecific background; also recorded: strongly increased (dark grey bar) and statistically significant
